In patent US20040233833:
Several values for one entry are separate records, joined by “and”; a condition that tells them apart may be missing. Equal values may be shown once.

Experiments:
[1] = target: REGα (UniProt Q06323)
[2] = target: REGα/β (UniProt Q06323)
[3] = target: REGγ (wild-type) (UniProt P61289)
[4] = target: REGγ(K188A) (UniProt P61289)
[5] = target: REGγ(K188C) (UniProt P61289)
[6] = target: REGγ(K188D) (UniProt P61289)
[7] = target: REGγ(K188E) (UniProt P61289)
[8] = target: REGγ(K188F) (UniProt P61289)
REGγ(K188F), sequence (P61289 whole entry K188F): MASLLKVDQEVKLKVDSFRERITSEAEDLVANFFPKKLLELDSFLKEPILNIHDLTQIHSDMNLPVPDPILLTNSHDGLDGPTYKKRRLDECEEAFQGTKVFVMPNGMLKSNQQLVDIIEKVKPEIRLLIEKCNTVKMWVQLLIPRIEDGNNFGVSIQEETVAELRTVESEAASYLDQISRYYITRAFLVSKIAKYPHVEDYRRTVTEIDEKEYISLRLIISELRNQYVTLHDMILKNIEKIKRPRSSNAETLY

[9] = target: REGγ(K188H) (UniProt P61289)
REGγ(K188H), sequence (P61289 whole entry K188H): as the sequence (P61289 whole entry K188F) above, with F188H counted along it

[10] = target: REGγ(K188I) (UniProt P61289)
REGγ(K188I), sequence (P61289 whole entry K188I): as the sequence (P61289 whole entry K188F) above, with F188I counted along it

[11] = target: REGγ(K188N) (UniProt P61289)
REGγ(K188N), sequence (P61289 whole entry K188N): as the sequence (P61289 whole entry K188F) above, with F188N counted along it

[12] = target: REGγ(K188P) (UniProt P61289)
REGγ(K188P), sequence (P61289 whole entry K188P): as the sequence (P61289 whole entry K188F) above, with F188P counted along it

[13] = target: REGγ(K188Q) (UniProt P61289)
REGγ(K188Q), sequence (P61289 whole entry K188Q): as the sequence (P61289 whole entry K188F) above, with F188Q counted along it

[14] = target: REGγ(K188R) (UniProt P61289)
REGγ(K188R), sequence (P61289 whole entry K188R): as the sequence (P61289 whole entry K188F) above, with F188R counted along it

[15] = target: REGγ(K188S) (UniProt P61289)
REGγ(K188S), sequence (P61289 whole entry K188S): as the sequence (P61289 whole entry K188F) above, with F188S counted along it

REGγ(K188E), sequence (P61289 whole entry K188E): as the sequence (P61289 whole entry K188F) above, with F188E counted along it
REGγ(K188C), sequence (P61289 whole entry K188C): as the sequence (P61289 whole entry K188F) above, with F188C counted along it
REGγ(K188D), sequence (P61289 whole entry K188D): as the sequence (P61289 whole entry K188F) above, with F188D counted along it
REGγ (wild-type), sequence (P61289 whole entry): as the sequence (P61289 whole entry K188F) above, with F188K counted along it
REGγ(K188A), sequence (P61289 whole entry K188A): as the sequence (P61289 whole entry K188F) above, with F188A counted along it
REGα/β, sequence (Q06323 whole entry, chain 1 of 2): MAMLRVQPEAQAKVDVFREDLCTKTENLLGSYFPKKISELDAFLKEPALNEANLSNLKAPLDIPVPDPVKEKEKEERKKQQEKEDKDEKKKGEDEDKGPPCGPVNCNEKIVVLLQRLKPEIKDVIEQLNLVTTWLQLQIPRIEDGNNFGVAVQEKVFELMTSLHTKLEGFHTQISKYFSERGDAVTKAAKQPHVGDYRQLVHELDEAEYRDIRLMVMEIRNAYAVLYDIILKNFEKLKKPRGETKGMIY
REGα/β, sequence (chain, as listed by the source, chain 2 of 2): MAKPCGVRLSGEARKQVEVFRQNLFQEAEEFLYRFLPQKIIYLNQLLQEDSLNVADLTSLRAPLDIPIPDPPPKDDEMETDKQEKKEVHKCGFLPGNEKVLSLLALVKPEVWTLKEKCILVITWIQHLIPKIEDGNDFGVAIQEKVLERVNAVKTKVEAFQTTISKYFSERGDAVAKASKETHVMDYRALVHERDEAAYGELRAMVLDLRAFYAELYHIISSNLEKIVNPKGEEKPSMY
REGα, sequence (Q06323 whole entry): as the sequence (Q06323 whole entry, chain 1 of 2) above

Work on “20S proteasome (human red blood cell proteasomes)” yielded a Stimulation of cleavage (x-fold), AAF-MCA [1] of 6 x-fold, a Stimulation of cleavage (x-fold), DEVD(SEQ ID NO: 8)-MCA [1] of 10 x-fold and a Stimulation of cleavage (x-fold), FSR-MCA [1] of 10 x-fold. For the same substance, the Stimulation of cleavage (x-fold), IEGR(SEQ ID NO: 5)-MCA [1] was 3 x-fold, the Stimulation of cleavage (x-fold), IETD(SEQ ID NO: 6)-MCA [1] was 30 x-fold and the Stimulation of cleavage (x-fold), LGHD(SEQ ID NO: 7)-MCA [1] was 11 x-fold. For the same substance, the Stimulation of cleavage (x-fold), LLE-βNA [1] was 9 x-fold, the Stimulation of cleavage (x-fold), LLVY(SEQ ID NO: 1)-MCA [1] was 16 x-fold and the Stimulation of cleavage (x-fold), LLVY-MCA [1] was 16 x-fold. The Stimulation of cleavage (x-fold), LRR-MCA [1] was 16 x-fold, the Stimulation of cleavage (x-fold), LY-MCA [1] was 5 x-fold and the Stimulation of cleavage (x-fold), VLK-MCA [1] was 7 x-fold. For the same substance, the Stimulation of cleavage (x-fold), YVAD(SEQ ID NO: 9)-MCA [1] was 9 x-fold, the “hydrolysis of the 21-residue peptide P21 by the proteasome (HPLC)” value (shortened to “hydrolysis of the 21-residue peptide P21”) [1] was “REGγ(K188E or D) and REGα markedly increased sunstrate consumption” and the % Degraded, substrate F1-EPQPQ (SEQ ID NO: 15), 5 hr [2] was 55%. It also gave a % Degraded, substrate F1-KSQPQ (SEQ ID NO: 16), 5 hr [2] of 85%, a % Degraded, substrate F1-QHQ, 5 hr [2] of 80% and a % Degraded, substrate F1-QPQ, 5 hr [2] of 85%. For the same substance, the % Degraded, substrate F1-QQQ, 5 hr [2] was 85%, the % Degraded, substrate F1-EPQPQ (SEQ ID NO: 15), 5 hr [3] was 5% and the % Degraded, substrate F1-KSQPQ (SEQ ID NO: 16), 5 hr [3] was 15%. For the same substance, the % Degraded, substrate F1-QHQ, 5 hr [3] was 5%, the % Degraded, substrate F1-QPQ, 5 hr [3] was 5% and the % Degraded, substrate F1-QQQ, 5 hr [3] was 15%. For the same substance, the Stimulation of cleavage (x-fold), AAF-MCA [3] was 1 x-fold, the Stimulation of cleavage (x-fold), DEVD(SEQ ID NO: 8)-MCA [3] was 2 x-fold and the Stimulation of cleavage (x-fold), FSR-MCA [3] was 7 x-fold. It also gave a Stimulation of cleavage (x-fold), IEGR(SEQ ID NO: 5)-MCA [3] of 1 x-fold, a Stimulation of cleavage (x-fold), IETD(SEQ ID NO: 6)-MCA [3] of 1 x-fold and a Stimulation of cleavage (x-fold), LGHD(SEQ ID NO: 7)-MCA [3] of 1 x-fold. For the same substance, the Stimulation of cleavage (x-fold), LLE-βNA [3] was 0.6 x-fold, the Stimulation of cleavage (x-fold), LLVY(SEQ ID NO: 1)-MCA [3] was 0.4 x-fold and the Stimulation of cleavage (x-fold), LLVY-MCA [3] was 0.4 x-fold. The Stimulation of cleavage (x-fold), LRR-MCA [3] was 12 x-fold and 11 x-fold, the Stimulation of cleavage (x-fold), LY-MCA [3] was 2 x-fold and the Stimulation of cleavage (x-fold), VLK-MCA [3] was 5 x-fold. The Stimulation of cleavage (x-fold), YVAD(SEQ ID NO: 9)-MCA [3] was 0.9 x-fold, the “hydrolysis of the 21-residue peptide P21” value [3] was “Wild-type REGγ decreased hydrolysis of P21 by the proteasome” and the Stimulation of cleavage (x-fold), LLE-βNA [4] was 6 x-fold. For the same substance, the Stimulation of cleavage (x-fold), LLVY-MCA [4] was 6 x-fold, the Stimulation of cleavage (x-fold), LRR-MCA [4] was 13 x-fold and the Stimulation of cleavage (x-fold), LLE-βNA [5] was 5 x-fold. The Stimulation of cleavage (x-fold), LLVY-MCA [5] was 6 x-fold, the Stimulation of cleavage (x-fold), LRR-MCA [5] was 13 x-fold and the Stimulation of cleavage (x-fold), AAF-MCA [6] was 4 x-fold. The Stimulation of cleavage (x-fold), DEVD(SEQ ID NO: 8)-MCA [6] was 9 x-fold, the Stimulation of cleavage (x-fold), FSR-MCA [6] was 7 x-fold and the Stimulation of cleavage (x-fold), IEGR(SEQ ID NO: 5)-MCA [6] was 2 x-fold. It also gave a Stimulation of cleavage (x-fold), IETD(SEQ ID NO: 6)-MCA [6] of 26 x-fold, a Stimulation of cleavage (x-fold), LGHD(SEQ ID NO: 7)-MCA [6] of 11 x-fold and a Stimulation of cleavage (x-fold), LLE-βNA [6] of 9 x-fold. It also gave a Stimulation of cleavage (x-fold), LLVY(SEQ ID NO: 1)-MCA [6] of 14 x-fold, a Stimulation of cleavage (x-fold), LLVY-MCA [6] of 14 x-fold and a Stimulation of cleavage (x-fold), LRR-MCA [6] of 15 x-fold. It also gave a Stimulation of cleavage (x-fold), LY-MCA [6] of 3 x-fold, a Stimulation of cleavage (x-fold), VLK-MCA [6] of 6 x-fold and a Stimulation of cleavage (x-fold), YVAD(SEQ ID NO: 9)-MCA [6] of 8 x-fold. The “hydrolysis of the 21-residue peptide P21” value [6] was “REGγ(K188E or D) and REGα markedly increased sunstrate consumption”, the % Degraded, substrate F1-EPQPQ (SEQ ID NO: 15), 5 hr [7] was 80% and the % Degraded, substrate F1-KSQPQ (SEQ ID NO: 16), 5 hr [7] was 80%. For the same substance, the % Degraded, substrate F1-QHQ, 5 hr [7] was 50%, the % Degraded, substrate F1-QPQ, 5 hr [7] was 50% and the % Degraded, substrate F1-QQQ, 5 hr [7] was over 95%. For the same substance, the Stimulation of cleavage (x-fold), AAF-MCA [7] was 4 x-fold, the Stimulation of cleavage (x-fold), DEVD(SEQ ID NO: 8)-MCA [7] was 8 x-fold and the Stimulation of cleavage (x-fold), FSR-MCA [7] was 7 x-fold. It also gave a Stimulation of cleavage (x-fold), IEGR(SEQ ID NO: 5)-MCA [7] of 2 x-fold, a Stimulation of cleavage (x-fold), IETD(SEQ ID NO: 6)-MCA [7] of 21 x-fold and a Stimulation of cleavage (x-fold), LGHD(SEQ ID NO: 7)-MCA [7] of 10 x-fold. For the same substance, the Stimulation of cleavage (x-fold), LLE-βNA [7] was 9 x-fold, the Stimulation of cleavage (x-fold), LLVY(SEQ ID NO: 1)-MCA [7] was 14 x-fold and the Stimulation of cleavage (x-fold), LLVY-MCA [7] was 14 x-fold. For the same substance, the Stimulation of cleavage (x-fold), LRR-MCA [7] was 15 x-fold, the Stimulation of cleavage (x-fold), LY-MCA [7] was 3 x-fold and the Stimulation of cleavage (x-fold), VLK-MCA [7] was 6 x-fold. For the same substance, the Stimulation of cleavage (x-fold), YVAD(SEQ ID NO: 9)-MCA [7] was 7 x-fold, the “hydrolysis of the 21-residue peptide P21” value [7] was “REGγ(K188E or D) and REGα markedly increased sunstrate consumption” and the Stimulation of cleavage (x-fold), LLE-βNA [8] was 4 x-fold. For the same substance, the Stimulation of cleavage (x-fold), LLVY-MCA [8] was 4 x-fold, the Stimulation of cleavage (x-fold), LRR-MCA [8] was 13 x-fold and the Stimulation of cleavage (x-fold), LLE-βNA [9] was 4 x-fold. The Stimulation of cleavage (x-fold), LLVY-MCA [9] was 5 x-fold, the Stimulation of cleavage (x-fold), LRR-MCA [9] was 14 x-fold and the Stimulation of cleavage (x-fold), LLE-βNA [10] was 3 x-fold. It also gave a Stimulation of cleavage (x-fold), LLVY-MCA [10] of 2 x-fold, a Stimulation of cleavage (x-fold), LRR-MCA [10] of 12 x-fold and a Stimulation of cleavage (x-fold), LLE-βNA [11] of 5 x-fold. It also gave a Stimulation of cleavage (x-fold), LLVY-MCA [11] of 5 x-fold, a Stimulation of cleavage (x-fold), LRR-MCA [11] of 14 x-fold and a Stimulation of cleavage (x-fold), LLE-βNA [12] of 1 x-fold. For the same substance, the Stimulation of cleavage (x-fold), LLVY-MCA [12] was 1 x-fold, the Stimulation of cleavage (x-fold), LRR-MCA [12] was 12 x-fold and the Stimulation of cleavage (x-fold), LLE-βNA [13] was 5 x-fold. It also gave a Stimulation of cleavage (x-fold), LLVY-MCA [13] of 5 x-fold, a Stimulation of cleavage (x-fold), LRR-MCA [13] of 14 x-fold and a Stimulation of cleavage (x-fold), LLE-βNA [14] of 0.7 x-fold. The Stimulation of cleavage (x-fold), LLVY-MCA [14] was 0.7 x-fold, the Stimulation of cleavage (x-fold), LRR-MCA [14] was 10 x-fold and the Stimulation of cleavage (x-fold), LLE-βNA [15] was 3 x-fold. For the same substance, the Stimulation of cleavage (x-fold), LLVY-MCA [15] was 3 x-fold and the Stimulation of cleavage (x-fold), LRR-MCA [15] was 14 x-fold.
